The source of these data is publication PMC5025757, “Sequences flanking the core-binding site modulate glucocorticoid receptor structure and activity”.

In data set [1] the target is T1, GR DBD wild type (rat, UniProt P06536 440-525). Briefly: EMSA; value only in figure; slightly higher affinity than A/T; EMSA: 20 mM Tris pH 7.5, 2 mM MgCl2, 1 mM EDTA, 10% glycerol, 0.3 mg/ml BSA, 4 mM DTT, 0.05 ug/ul dIdC, 1.25 nM DNA, 30 min; NMR: 20 mM Na phosphate, 100 mM NaCl, 1 mM DTT, pH 6.7, 5% D2O, imino titration at 25 C. The conditions noted are these: protein: recombinant; chain copies: 2; label: Cy5 5' of strand 1; blunt.

Data set [2] deals with GR DBD A477T (dim mutant) (rat, UniProt P06536 440-525, A477T). In words: EMSA; affinity lower than wild type; EMSA: 20 mM Tris pH 7.5, 2 mM MgCl2, 1 mM EDTA, 10% glycerol, 0.3 mg/ml BSA, 4 mM DTT, 0.05 ug/ul dIdC, 1.25 nM DNA, 30 min; NMR: 20 mM Na phosphate, 100 mM NaCl, 1 mM DTT, pH 6.7, 5% D2O, imino titration at 25 C. As to conditions: protein: recombinant; chain copies: 2; label: Cy5 5' of strand 1; blunt.

In data set [3] the target is T1, GR DBD wild type. In words: EMSA; value only in figure; similar Kd for A/T and G/C flanks; EMSA: 20 mM Tris pH 7.5, 2 mM MgCl2, 1 mM EDTA, 10% glycerol, 0.3 mg/ml BSA, 4 mM DTT, 0.05 ug/ul dIdC, 1.25 nM DNA, 30 min; NMR: 20 mM Na phosphate, 100 mM NaCl, 1 mM DTT, pH 6.7, 5% D2O, imino titration at 25 C. As to conditions: protein: recombinant; chain copies: 2; label: Cy5 5' of strand 1; blunt.

The target of data set [4] is T1, GR DBD wild type. In words: NMR (1D imino proton titration); G46 more broadened than with G/C; 25 C; EMSA: 20 mM Tris pH 7.5, 2 mM MgCl2, 1 mM EDTA, 10% glycerol, 0.3 mg/ml BSA, 4 mM DTT, 0.05 ug/ul dIdC, 1.25 nM DNA, 30 min; NMR: 20 mM Na phosphate, 100 mM NaCl, 1 mM DTT, pH 6.7, 5% D2O, imino titration at 25 C. As to conditions: protein: recombinant; chain copies: 2; blunt.

The target of data set [5] is T1, GR DBD wild type. Briefly: NMR (15N-HSQC); EMSA: 20 mM Tris pH 7.5, 2 mM MgCl2, 1 mM EDTA, 10% glycerol, 0.3 mg/ml BSA, 4 mM DTT, 0.05 ug/ul dIdC, 1.25 nM DNA, 30 min; NMR: 20 mM Na phosphate, 100 mM NaCl, 1 mM DTT, pH 6.7, 5% D2O, imino titration at 25 C. As to conditions: protein: recombinant; chain copies: 2; blunt.
Data set [6] has as its target T1, GR DBD wild type. Briefly: NMR (1D imino proton titration); 25 C; EMSA: 20 mM Tris pH 7.5, 2 mM MgCl2, 1 mM EDTA, 10% glycerol, 0.3 mg/ml BSA, 4 mM DTT, 0.05 ug/ul dIdC, 1.25 nM DNA, 30 min; NMR: 20 mM Na phosphate, 100 mM NaCl, 1 mM DTT, pH 6.7, 5% D2O, imino titration at 25 C. As to conditions: protein: recombinant; chain copies: 2; blunt.

T1 sequence (P06536 440-525): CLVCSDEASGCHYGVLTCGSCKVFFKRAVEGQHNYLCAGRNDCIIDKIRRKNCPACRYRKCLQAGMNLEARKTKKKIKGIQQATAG
Sequence of GR DBD A477T (dim mutant) (P06536 440-525 A477T): as the sequence (P06536 440-525) above, with A38T counted along it

B1: G-Cgt-C EMSA (dsDNA)
DNA 1: ACCGAGAACATTTTGTACGCCTC
DNA 2: GAGGCGTACAAAATGTTCTCGGT
With B1, in the data set with GR DBD wild type [1], the binding result is recorded as “binds”. The Kd in data set [2] worked out at 3.5 ± 1.1 µM.

B2: G-Sgk-C EMSA (dsDNA)
DNA 1: ACCGAGAACATTTTGTCCGCCTC
DNA 2: GAGGCGGACAAAATGTTCTCGGT
Consider B2, for which the binding result with GR DBD wild type [3] is listed as “binds”.

B3: A-Sgk-T EMSA (dsDNA)
DNA 1: ACCAAGAACATTTTGTCCGTCTC
DNA 2: GAGACGGACAAAATGTTCTTGGT
On to B3, for which, in the data set with GR DBD wild type [3], the binding result is “binds”.

B4: Cgt A-T NMR (dsDNA)
DNA 1: GCCAAGAACATTTTGTACGTCTCG
DNA 2: CGAGACGTACAAAATGTTCTTGGC
On to B4, for which the binding result with GR DBD wild type [4] is given as “binds”.

B5: Cgt A-C NMR (dsDNA)
DNA 1: GCCAAGAACATTTTGTACGCCTCG
DNA 2: CGAGGCGTACAAAATGTTCTTGGC
On to B5, for which the binding result with GR DBD wild type [5] was “binds”.

B6: Cgt G-C NMR (dsDNA)
DNA 1: GCCGAGAACATTTTGTACGCCTCG
DNA 2: CGAGGCGTACAAAATGTTCTCGGC
For B6, the binding result in the data set with GR DBD wild type [6] was “binds”.

B7: A-Cgt-T EMSA (dsDNA)
DNA 1: ACCAAGAACATTTTGTACGTCTC
DNA 2: GAGACGTACAAAATGTTCTTGGT
Consider B7, for which, in the data set with GR DBD wild type [3], the binding result is recorded as “binds”. In addition, the Kd in data set [2] was 3.1 ± 0.4 µM.
